According to the supplement of paper PMC9170038:

System: MS2 coat protein
Test: apparent KD of MS2 coat protein; designed switch direction (-1 OFF switch, 1 ON switch): -1; higher = weaker reporter binding
How it was run: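 Designed RNA switches were transcribed on Illumina chips by stalled E. coli RNA polymerase and titrated with SNAP-549-labelled MS2 coat protein from 0.7 or 1.5 nM, doubling to 3 µM. Step length ran from 0.8–1.5 h at the lowest concentration to 10–20 min at the highest. The apparent KD is the median over clusters for each design, from curve-fitted normalised cluster fluorescence.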

[1] = input ligand: microRNA oligo, concentration not stated
[2] = Eterna round: R95, input ligand: microRNA oligo, concentration not stated

Row | Sequence | apparent KD of MS2 coat protein (input ligand: FMN 200 uM) | apparent KD of MS2 coat protein [1] | apparent KD of MS2 coat protein (input ligand: none) | apparent KD of MS2 coat protein [2] | apparent KD of MS2 coat protein (Eterna round: R95, input ligand: FMN 200 uM) | apparent KD of MS2 coat protein (Eterna round: R95, input ligand: none)
1 | GUACUGAAGCUUUGCUUUAGUCGUACAUGAGGAUCACCCAUGUAGGAUAUGGUAGGCUUUGCUUACCAGAAGGACAGAGUGAUC [JL EXNG3 1.25] (Eterna round: R96, puzzle: Exclusion NG 3) | 68.6 nM | 83.7 nM | 85.3 nM |  |  | 
2 | GUACUGACAGGAUAUACAUGAGGAUCACCCAUGUGCCUUAGCGCUACAAAAGUAGCGUGUAGAAGGGUCUGUAC [Omei Ex3 Model Bachelor's Dilema v15] (Eterna round: R97, puzzle: Exclusion 3) | 36.8 nM |  | 15.4 nM |  |  | 
3 | GUAGAGUCAGGAUAUACAAAUAGAUCGAAAGAUCAAUCCAUACAUGAGGAUCACCCAUGUAGAAGGGACUCUAC [Eli x2 4.15] (Eterna round: R97, puzzle: Exclusion 2) | 20.5 nM |  | 16.7 nM |  |  | 
4 | GUAGAGUCAGGAUAUACGAGAUCGAAAGAUCUUUGAUCCUAACAUGAGGAUCACCCAUGUAGAAGGGACUCUAC [Omei mod 3 to Eli's favorate candidate (ch.parushev)] (Eterna round: R97, puzzle: Exclusion 2) | 698 nM |  | 58 nM |  |  | 
5 | GUAGAUCGAGUUAGGAUAUGAUUAAAAUUCGGAUAUCAGAAGGAACUUGAGGAUCACCCAAGUAUAGAUGAUUC [JR_BMEx4_Sub057] (Eterna round: R97, puzzle: Brourd's mod of Exclusion 4) | 135 nM |  | 29.8 nM |  |  | 
6 | GUAGCUCUCGAGGAUAUGGAUAGAAAAGUUAGUCCAGAAGGCGAGACAUGAGGAUCACCCAUGUUGGACUCUGC [Eternabot (L2) Solution 77] (Eterna round: R97, puzzle: Exclusion 6) | 118 nM |  | 60.4 nM |  |  | 
7 | GUAUCCGAGAAGGAUAUCAAUGGCCCGGACCACUGAGAAGGUCUCACAUGAGGAUCACCCAUGUCACAGGUGCA [Eternabot (Original) Solution 29] (Eterna round: R97, puzzle: Exclusion 6) | 74.1 nM |  | 70.3 nM |  |  | 
8 | GUAUCGUGAGGAUAUCAUGAUUGACUUUUAUUUUGUCAGCGUGAGAAGGCACAUGAGGAUCACCCAUGUGAUUA [Ex4 - 3 - 8] (puzzle: Exclusion 4) |  |  |  | 23.2 nM |  | 
9 | GUAUGUUAUGAGGAUAUCGGUGAACAUACACAUCGAGAAGGCAUGACAUGAGGAUCACCCAUGUCAAGGAUGUA [Exclusion 6 - B - 18:b] (puzzle: Exclusion 6) |  |  |  | 15.3 nM | 25.5 nM | 20.8 nM
10 | GUCACAUGGGUGUAGAAUCACAUGAGGAUCACCCAUGUGACUAACAAGCUUUUUGCUCGUCUUAUGUCUAUGUGAAA [Stov1/17-A1] (Eterna round: R97, puzzle: Sensor, turn-off variant 1) | 47.4 nM |  | 40.5 nM |  |  | 
11 | GUCAGACGAGGAUAUAGAUUUAGAUACAUGAGGAUCACCCAUGUAUAGAUGUAUUUAGAUUUAGAAGGCGUCUGAC [E5/13-A3] (Eterna round: R97, puzzle: Exclusion 5) | 231 nM |  | 201 nM |  |  | 
12 | GUCAGCUCGUCAGGAUAUAUAUACAUGAGGAUCACCCAUGUAAGAUCAGGCUUCGGCCAAUGUAUAUAGAAGGGACGAGCUGAC [ENG2/11-B1] (Eterna round: R96, puzzle: Exclusion NG 2) | 500 nM | 691 nM | 716 nM |  |  | 
13 | GUCAGCUCGUGAGGAUAUACAUCACUGCUUCGGCAGUGUAUUAAGAUCACAUGAGGAUCACCCAUGUAGAAGGUACGAGCUGAC [ENG2/2-C1] (Eterna round: R96, puzzle: Exclusion NG 2) | 180 nM | 21.5 nM | 22.1 nM |  |  | 
14 | GUCAGCUCGUGAGGAUAUACAUGAGGAUCACCCAUGUGGUCAAUAGCAGCUUCGGCUGCAUACAUGUAGAAGGCACGAGCUGAC [ENG2/7-A1] (Eterna round: R96, puzzle: Exclusion NG 2) | 59.7 nM | 9.59 nM | 30.7 nM |  |  | 
15 | GUCAGCUCGUGAGGAUAUACAUGAUAGAUCGAUUAAUUAAUUAAUUUAACAUGAGGAUCACCCAUGUAGAAGGUACGAGCUGAU [ENG2/1-C2] (Eterna round: R96, puzzle: Exclusion NG 2) |  | 40.1 nM |  |  |  | 
16 | GUCAGCUCGUGAGGAUAUACAUGCGUGCUUCGGCACGAAUUUAAGAUCACAUGAGGAUCACCCAUGUAGAAGGCACGAGCUGAU [ENG2/3-A2] (Eterna round: R96, puzzle: Exclusion NG 2) | 366 nM | 896 nM | 797 nM |  |  | 
17 | GUCAGCUCGUGAGGAUAUAUAUACAUGAGGAUCACCCAUGUAAGAUCAGGCUUCGGCCAAUGUAUAUAGAAGGCACGAGCUGAC [ENG2/11-A1] (Eterna round: R96, puzzle: Exclusion NG 2) | 1350 nM | 1510 nM | 636 nM |  |  | 
18 | GUCAGCUCGUGAGGAUAUGAACAUGAGGAUCACCCAUGUAAGAUCAAGCUGCUUCGGCAGCAAGUUCAGAAGGCACGAGCUGAU [ENG2/10-A2] (Eterna round: R96, puzzle: Exclusion NG 2) | 251 nM | 134 nM | 172 nM |  |  | 
